In one assay the target is T1, Cyno CD33 ECD-HSA (cynomolgus monkey).
T1 construct: Cyno CD33 ECD fused to HSA and a six-histidine tag; also called C33W1
Kind of assay: ProteOn SPR, mAb captured on anti-human Fc, antigen as analyte. As for the experimental part:
(§1) The panel of mAbs was then further characterized for full affinity analysis as well as epitope binning. The binding of anti-CD33 mAbs to recombinant human CD33 ECD-HSA (C33W2) and cyno CD33 ECD-HSA (C33W1) was measured by ProteOn SPR (Bio-Rad). […] Different mAbs were captured on the anti-human Fc IgG surface at 0.25 or 0.5 μg/ml (160-300 RU) in vertical ligand orientation, with the 6th ligand channel as no ligand surface control. Human and cyno CD33-HSA proteins at 0.3 μM concentration in 3-fold dilution series of 5 concentrations flew in as analyte to bind to captured mAbs in the horizontal orientation. A buffer sample was also injected in the 6th channel to monitor the dissociation of captured mAb and baseline stability. […] The raw biding data were processed by double referencing after subtracting the response data from: 1) the inter-spot to correct for the non-specific interactions between the Ag and the empty chip surface; 2) the buffer channel to correct for baseline drifting due to the dissociation of captured mAb surface over time. The processed data at all antigen concentrations for each mAb were globally fit to a 1:1 simple Langmuir binding model to extract estimates of the kinetic (kₒₙ, koff) and affinity (Kd) constants.

For assay [1], the target named is T2, Human CD33 ECD-HSA (human).
T2 construct: CD33 ECD fused at the C-terminus to monomeric HSA (C58S) and a six-histidine tag; also called C33W2; huCD33 ECD-HSA
Described as above. As for the experimental part: as §1

The target of the next assay is T3, Human CD33 full length (human, UniProt P20138 18-364).
T3 construct: also called huCD33
Kind of assay: flow cytometry on HEK293F cells expressing human CD33. The procedure: (§2) The purified antibodies were assessed for binding to stably transfected HEK293F cells expressing human CD33 or cyno CD33 (generation described above) along with the parental HEK293F as negative control. Cells were harvested from tissue culture flasks using non-enzymatic dissociation buffer (Thermo Scientific). The flasks were rinsed twice with PBS and dissociation buffer was added to the flask, and the flask was incubated for 10 minutes at 37° C. until the cells became non-adherent. The cells were centrifuged at 300 g for 5 minutes and resuspended at 1.0×10⁶ cells/ml in staining buffer (Becton Dickinson; Franklin Lakes, NJ). 50,000 cells/well of each cell type was plated in 50 μl of staining buffer in round bottom plates (Becton Dickinson). […] 100 μl staining buffer was added to all wells of each plate, the plates were spun at 300 g for 5 min, the buffer was removed, 200 μl staining buffer was added to all wells of each plate, the plates were spun at 300 g for 5 min, and the buffer was removed. 50 μl of 2 μg/ml of Goat-anti-human Fc AF647 secondary antibody (Jackson Immunoresearch; West Grove, PA) was added to all wells of the plates, and the plates were incubated for 30 min at 4° C. 100 μl staining buffer was added to all wells of the plates, the plates were spun at 300 g for 5 min, and the buffer was removed. 200 μl running buffer (running buffer is Staining buffer, 1 mM EDTA, 0.1% Pluronic Acid) was added to all wells of the plates, the plates were spun at 300 g for 5 min, and the buffer was removed. 30 μl running buffer containing Sytox Green live/dead dye (ThermoFisher) was added to all wells with cells and the plates were read on an iQue IntelliCyt flow cytometer. Cells were gated on forward vs. side scatter to eliminate debris, then on singlets and then on live cells which excluded the Sytox stain. Antibody binding was assessed by the mean fluorescence intensity in the AF647 channel.
(§3) The OmniMouse panel (8 mAbs total) was generated separately and characterized further for binding to cells.

The target in a further assay is T4, Human CD33-C2-HSA (human).
T4 construct: C2 domain of human CD33 fused to HSA; also called C33W4; huCD33-C2-HSA
Kind of assay: SPRi off-rate screen (IBIS MX96).

For assay [2], the target named is T2, Human CD33 ECD-HSA. Kind of assay: SPRi off-rate screen (IBIS MX96).
A further assay concerns the target T5, Cyno CD33 full length (cynomolgus monkey).
T5 construct: also called cyCD33
Kind of assay: flow cytometry on HEK293F cells expressing cyno CD33. The procedure: as §2, §3

T3 sequence (P20138 18-364 limits assumed): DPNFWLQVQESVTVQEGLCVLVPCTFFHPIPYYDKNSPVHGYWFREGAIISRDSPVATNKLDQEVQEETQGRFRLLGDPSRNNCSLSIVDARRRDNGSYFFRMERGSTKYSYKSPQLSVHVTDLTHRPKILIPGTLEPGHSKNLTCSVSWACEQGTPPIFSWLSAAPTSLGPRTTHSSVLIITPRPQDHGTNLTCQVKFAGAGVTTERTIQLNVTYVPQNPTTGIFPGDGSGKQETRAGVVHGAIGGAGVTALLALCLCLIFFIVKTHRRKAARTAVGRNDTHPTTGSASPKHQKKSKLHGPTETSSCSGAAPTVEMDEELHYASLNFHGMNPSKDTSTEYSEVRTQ

B1: C33B912 (antibody, V domains shown)
VH: EVQLVESGGGLVQPGRSLRLSCAASGFTFDDYAMHWVRQAPGKGLEWVSGIGWSGGSIVYADSVKGRFTISRDNAKNSLYLQMNSLRAEDTALYYCAKDSPYGDFFDYWGQGTLVTVSS
VL: DIVMTQSPDSLAVSLGERATINCKSSQTVFYSSNNKNYLAWYQQKPGQPPKLLISWASTRKSGVPDRFSGSGSGTDFTLTVSSLQAEDVAVYYCQHYYSTPYTFGQGTKLEIK
notes: OMNIMouse-derived anti-CD33 mAb; also called C33H252/C33L118; C33F550
In the assay with Cyno CD33 ECD-HSA, B1 returned a Kd of 0.433 nM, a koff of 0.00065 s⁻¹ and a kon of 1.5e+06 M⁻¹ s⁻¹. In the assay with Human CD33 ECD-HSA [1], binding was put at a Kd of 0.0302 nM, the koff was 4.29e-05 s⁻¹ and the kon was found to be 1.42e+06 M⁻¹ s⁻¹. For the same molecule, in the assay with Human CD33 full length, the “MFI at 0 nM (background)” value stood at 150 MFI, the “MFI at 0.6 nM” value came to 15700 MFI, the “MFI at 6 nM” value was 101000 MFI and the “MFI at 60 nM” value is 237000 MFI. In the assay with Human CD33-C2-HSA, the koff came out at 6.68e-05 s⁻¹. The molecule also showed a koff with Human CD33 ECD-HSA [2] of 1.29e-05 s⁻¹. For the same molecule, in the assay with Cyno CD33 full length, the “MFI at 0 nM (background)” value was found to be 125 MFI, the “MFI at 0.6 nM” value turned out to be 1730 MFI, the “MFI at 6 nM” value is 7270 MFI and the “MFI at 60 nM” value was determined as 15100 MFI.

Source of the values: patent US20230322924A1 (Janssen / Centocor, published 2023).
